Data: the nanobody polyreactivity screen of Harvey et al. (2022)

Test: yeast display, Sf9 membrane polyspecificity reagent, FACS + sequencing; frameworks hold sequencing errors
Method in brief: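 Galactose induction of a Saccharomyces cerevisiae BJ5465 synthetic nanobody display library ran 36–48 hours. The cells were then stained for 1 hour at 4 °C with 10% biotinylated, detergent-solubilized Sf9 membrane reagent, pulled down on streptavidin microbeads and FACS-sorted into low and high (top ~1%) gates on expression and reagent-binding fluorescence. Labels for polyreactivity follow the gate of origin.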

| Sequence | polyreactivity (PSR sort gate) |
| --- | --- |
| QVQLVESGGGLVHAGGSLRLSCAASGSTYGGNAMGWYRQAPGKETELVASITRSGGSTYYADSVKGRFTISRDNAKNTVYLQMNSLKPEDTSVYYCAAGKWYRSPWKYDYWGQGTQVTVSS | low polyreactivity |
| QVQLVESGGGLFQAGGSLRLSCAASGRTFNFNVMGWYRQAPGKERELVAAMSKSTGSTFYADSVKGRFTISRDNAKNTVYLQMNSLKPEDTAGYYCAAKPSRSLYYYWGQGTQVTVSS | high polyreactivity |
| QVQLVESGGGLVQAGGSLRLSCAASGRIFALYAMGWYRQAPGKERELVAAISGGGGSTYYADSVKGRFTISRDNAKNSVYLQMNSLKPEDTAVYYCAARGLSGSSVKYGYWGQGTQVTVSS | high polyreactivity |
| QVQLVESGGDLVQAGGSLRLSCGASGFIFDGYAMGWYRQAPGKERELVAAISSSGGRTHYADSVKGRFKISRDNAMNTVYLQMNSLKAEDTAVYYCAATVRGKRSTYDYWGQGTQVTVSS | high polyreactivity |
| QVQLQESGGGLEHAGGSLRLSCAASGNIFLSIFMGWYRQAPGKEREFVAGIGSGTNTNYADSVKGRFTISRDNANNTVYLQMNSLKPEDTAVYYCNAVWGSHYPTYAKLSRDYWGQGTQVTVSS | high polyreactivity |
| QVQLVESGGGLVQGGGSLRLSCAASGRIFDRYAMGWYRQAPGKERELVAAISSSGGSTYYADSVKGRFTISRDNAKNTVYLQMNSLKPEDTPVYYCNADYYVSKLDYWGQGTQVTVSS | high polyreactivity |
| QVQLVESGGGLVQAGGSLRLSCAASGRTFSGYAMGWYRQAPGKERELVAVITYSGGSTYYADSVKGRFTISRDNAKNTVYLQMNSLKPEDTAVYYCNADYVIFYQLVDYDYWGQGTQVTVSS | low polyreactivity |
| QVQLVESGGGLVQAGGSLRLSCAASGSTFARYAMGWSRQAPGKERELVAAISDSSGSTYYADSVKGRFTISRDNAKNTVYLQMNSLKPEDTAVYYCRYYFGSGYYYWGQGTLVTVSS | high polyreactivity |
| QVQLVESGGGLVQAGGSLRLSCAASGRIFTRYAMGSYRQAPGKETEFVAAISGNGGSTYADSVKGRFTISRDNAKNTVYLQMNSLKPEDTAVYYCAAVPYGYGLASDSIFDYWGQGTQVTVSS | high polyreactivity |
| QDQLVESGGGLVQAGGSLRLSCAASGRTFKRYAMGWYRQAPGKERELVAAITFSGGSTYYADSVKGRFTISRDNAKNTVYLQMNSLKPEDTAVYYCAAGYRWTGGLKYDFWGQGTQVTVSS | high polyreactivity |
| QVQLVESGGGLVQAGGSLRLSCAASGRIFWSNAMGWYRQAPGKERELVAAIRNTCSTNYADSVKGRFTISRDNAKNTVYLQMISLKPEDTGVYYCAADRASYFTYAYGYWGQGTQVTVSS | high polyreactivity |
| QVQLVESGGGLVQAGGSLRLSCAASGSIFYFYAMGWYRQAPGKERELVASIRWSCGRTRYADSVKGRFTISRDNAKNTVYLQMNSLKPEDTAVYYCAARGGGRPYDYWGQGTQVTVSS | high polyreactivity |
| QVQLVESGGGLVQAGGSLRLSCAASGIIFRAYAMGWYRPAPGKETEFVADISYSGGRTYYADSVKGRFTISRDNAKNTVYLPLNSLKPEDTAVYYCGARKLYGSPEHGYWGQGTQVTVSS | high polyreactivity |
| QVQLVESGGGLVQAGGSLRLSCAASGNTFRYYAMGWYRQAPGKERELVAAINRSGGRTYYADSVKGRFTISRDNAKNTVYLQMNSLKPEDTAVYYCARSIRYGRGVYKGGYWGQGTQVTVSS | high polyreactivity |
| QVQLVESGGGLVQAGGSLRLSCAASGSIYGLYAMGWYRQAPGKERELVATITSGSSTNYADSVKGRFTISRDNAKNTVYLQMNSLKPEDTAVYYCAVDDLYGFDYWGQCTQVTVSS | low polyreactivity |
| QVQLVESVGRLVQAGGSLRLSCAASGSTITPNAMGWYRQAPGKERELVAAINWSGTSTYYADSVKGRFTISRDNEKNTVYLQMNSLKQEDTAVYSCAASYPDVDYDYWGHGTQVTVSS | high polyreactivity |
| QVQLVESGGGLVQAGGSLRLSCAASGLTFWYYDMGWYRQAPGKERELVAAISRCGGTTYYADSVKGRFTISRDNAKNSVYLQMNSLKPEDTAVYYCAAVSFGFWVTEYYYWGQGTQVNVSS | high polyreactivity |
| QVQLVESGGGLVQAGGSLRLSCAASAFTLARYAMGWYRQAPGKERELVAAITKRGGSTYYADSVKGRFTISRDNAKKTVYLQMNSLKPEDTAVYYCNGASRYSQTFEFDYWGQGTQVTVSS | high polyreactivity |
| QVQLVESGGGLVQAGGSLRLSCAASGLIFSRYTMGWYRQPPGKERELVAAISSDGSTYYADSVKGRFTISRDNAKNTVYLQMNSLKPEDTAVYYCAARYWVGGRDRYDSWGQGTQVTVSS | high polyreactivity |
| QVQLVESGGGLVQAGGSLRLSCAASGRTFYSNVMGWYRQAPGKERELVAAISKSGGRTYYADSVKGRFTISRDNAKNTVYLQMNSLKPEDTAVYYCATDHGRYHGRYDYWGQGTQVTVSS | high polyreactivity |
| QVQLVESGGGLVQAGGSLRLSCAASGSTFFTNAMGWYRQAPAKERELVAVITKRGGSTYYADSVKGRFTISRDKAKNTVYLQMNSLKPEDTAVYYCAARIPKQQGYGYWGHGTQVTVSS | high polyreactivity |
| QVQLVQSGGGLVQAGGSLRLSCAASGSIFTSYAMGWYRQAPGKERELVAAINGSGGSTFYADSVKGRFTISRDHAKNTVYLQMNSLNPEYTAVYYCYTVGPRGTTYDDWGQGSQVTVSS | low polyreactivity |

| Sequence | polyreactivity (PSR sort gate) |
| --- | --- |
| QVQLVESGGGLVQAGGSLRLSCAASGSTFGYYAMGWYRQAPGKERELVAAITSGGSTYYADSVKGRFTISRDNAKNTVYLQMNSLKPEDTAVYYCNRTYYWYWRYDYWGQGTQVTVSS | low polyreactivity |
| QVQLVESGGGLVQAGGSLRLSCAASGYTFDGYAMGWYRQAPGKERELVAVITKSGGRKYYADSVKGRFTISRDNAKNTVYLQMNSLKREVTAVYYCAADDSGTKDIVEGEYWGQGTQVTVSS | high polyreactivity |
| QVQHVESAGGLVQAGGSLRLSCAASGRTFSRYAMGWYRQAPGKERELVATITRGGSTNYADSVKGRFTISRDNAKNRVYLQMNSQKPEDTSVYYFIAGCFRYQGTLNHFYYWGQGTQVTVSS | low polyreactivity |
| QVQLVESGGGLVQAGGSLRLSCAASGSIFESYAMGWYRQAPGKERELVAAITKRGGSTYYADSVKGRFTISRDNAKNTVYLQMNSLKPEDTAVYYCNARWPGIGPIYDYWGQGTQVTVSS | low polyreactivity |
| QVQLVESGGGLVQAGGSLRLSCAASGSIFPHNAMGWYRQAPGKERALVASITSRGGITYYADSVKGRFTISRDNAKNTVYLQMNSLKPEDTAVYYCNGVLYHYSPTDSWITYDYWGQGTQVTVSS | low polyreactivity |
| QVQLVESVGCLVQAGGSLRLSCAASGSTFDYYAMGWYRQAPGKERELVAAITSTGRTYYADSVKGRFTISRDNAKNTVYLQMNSLKPEDTAVYYCAADLPWGPLFDYWGQGTQVTVSS | low polyreactivity |
| QVQLVESGGGLVQAGGSLRLSCSASGRTFWRYAMGWYRQAPGKERELVAAISSGGRTNYADSVKGRFTISRDNAKNTVYLQMNSLIPEDTAVYYCAADSYYGYGYWGQGTQVTVSS | high polyreactivity |
| QVQLVESGGGLVQAGGSLRLSCAASGITFNVNAMGWYRQAPGKERELVAAISWRGGSTYYADSVKGRFTISRDNAKNTVYLQMNSLKPEDTAVYYCAAKLDGSSYYYWGQGTQVTVSS | low polyreactivity |
| QVQLVESGGGLVQAGGSLRLSCAASGSIFIYNAMGWYRQAPGKERELVAAINWTGGSTYYADSVKGRFTISRDNAKNTVYLQMNSLKPEDTAVYYCNALRYGSTRGYDYWGQGTQVTVSS | high polyreactivity |
| QVQLVESGGGLVQAGGSLRLSCAASGRTFRIYAMGWYRQAPGKERELVAAIRWSGGTTYYADSVKGRFTISRDNAKNTVYLQRNSLKPEDTAVYYCAADSTNRYDYWGQGTQVTVSS | high polyreactivity |
| QVQLVESGGGLVQAGGSLRLSCAASGSIFRRNAMGWYRQAPGKERELVAGISGGGSTYYADSVKGRFTISRDNAKNTVYLQMNSLKPEDTAVYYCSTDKHYRWAGFDYWGQGTQVTVSS | low polyreactivity |
| QVQLVESGGGLVQAGGSLRLSCAASGFTFTYYAMGSYRQAPGKERELVAAITSRGGTTYYADSVKGRFTISRDNAKNTVYLQMNSLKPEDTAVYYCNARHSYWTGRRVTDDYDYWGQGTQVTVSS | high polyreactivity |
| QVQLVESGGGLVQAGGSLRLSCAASGNTFYWNAMGWYRQAPGKERELVAAISTTGVSTYYADSVKGRFTISRDNAKNTVYLQMNSLKPEDTAVYYCAAEIIGYHTIYDYWGQGTQVTVSS | low polyreactivity |
| QVQLVESGGGLVQAGGSLRLSCAASGSIFRVYAMGWYRHAPGKERELVATITSSGGFTYADSVKGRFTISRDNAKNTVYLQMNSLKQEDTAVYYCATVRFGQYWVPSGYSWGYTYDYWGQGTQVTVSS | high polyreactivity |
| QLQLVESGGGLVQAGGSLRLSCAASGRTFYQYAMGWYRKAPGKERELVAAITTSGGSTYYADSVKGRFTISRDNAKNTVYLQMNSLKPEYTAVYYCAAPYTGYRERGSYKSDYWGQGTQVTVSS | low polyreactivity |
| QVQLVESGGGLVQAGGSLSLICAASGLIFKYNDMGWYRQAPGKERELVAAISTSGGSTYYADSVKGRFTISRDNAKNTVYLQMNSLKPEDTAVYYCNARRQRNKSYNYWGQGTQVTVSS | high polyreactivity |
| QVQLVESGGGLVQAGGSLRLSCAASGSTFVYNAMGWYRQAPGKERELVAGIRSSGDRTYYADSVKGRFTISRDNGKNTVYLQMNSLKPEDTAVYYCAAYLGRDPWFSRQGYGYWGQGTQVTVSS | high polyreactivity |
| QVQLVESGGGLVQAGGSLRLSCAASGSIVVGYAMGWYRQAPGKERELVAAITGSGTRTYYADSVKGRFTISRDNAKNTVYLQMNSLKPEDTAVYYCAAPLSYKNVKYDYWGQGTQVTVSS | low polyreactivity |
| QVQLVESGGGLVQAGGSLRLSCAASGGTISYYAMGRYRQAPRKERELVAAINWSGASTYYADSVKGRFTNSRDNAKYTVYLELNSLKPEETAVYYCAADSIQYTARPYDYWGQGTQVTVSS | low polyreactivity |
| QVQLVESGGGLVQAGGSLRLSCAASGFTFGRYAMGWYRQATGKERELVAAITWSGGSTHYADSVKGRFTISRDNAKNTVYLQMNSLKPEDTAVYYCAVRVIYWSGSQVSVEYYYWGQGTQVTVSS | low polyreactivity |
| QVQLVESGGGLVQAGGSLRLSCAASGITFRGNAMGWYRQAPGKERELVATISSGGITNYADSVKGRFTISRDNAKNTVYLQMNSLKPEDTAVYDCNADNAYGFYRVKYEGYYWGQGTQVTVSS | low polyreactivity |
